Experimental data: patent US20220089695A1

Experiments:
[1] = target: SARS-CoV-2 Spike (S) protein, recombinant, construct not stated at the place (SARS-CoV-2) (UniProt P0DTC2)
[2] = target: C-type lectin domain family 10 member A expressed on cells (human) (UniProt Q8IUN9)
[3] = target: Asialoglycoprotein Receptor 1 expressed on cells (human) (UniProt P07306)
[4] = target: Tweety Family Member 2 expressed on cells (human) (UniProt Q9BSA4)
[5] = target: Liver/lymph node-specific intercellular adhesion molecule-3-grabbing integrin expressed on cells (human) (UniProt Q9H2X3)
Sequence of Liver/lymph node-specific intercellular adhesion molecule-3-grabbing integrin expressed on cells (human) (Q9H2X3 whole entry): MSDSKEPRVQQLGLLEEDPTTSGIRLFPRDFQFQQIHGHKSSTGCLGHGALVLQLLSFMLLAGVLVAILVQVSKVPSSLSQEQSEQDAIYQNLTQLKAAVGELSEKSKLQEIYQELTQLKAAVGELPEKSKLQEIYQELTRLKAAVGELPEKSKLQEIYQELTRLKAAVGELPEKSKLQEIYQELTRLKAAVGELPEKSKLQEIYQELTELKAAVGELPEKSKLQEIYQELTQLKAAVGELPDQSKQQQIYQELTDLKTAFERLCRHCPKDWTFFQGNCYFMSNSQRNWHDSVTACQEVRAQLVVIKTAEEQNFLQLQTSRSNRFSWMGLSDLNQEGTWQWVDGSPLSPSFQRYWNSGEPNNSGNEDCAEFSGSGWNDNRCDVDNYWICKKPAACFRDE

[6] = target: Dendritic cell-specific intercellular adhesion molecule-3-grabbing nonintegrin expressed on cells (human) (UniProt Q9NNX6)
Sequence of Dendritic cell-specific intercellular adhesion molecule-3-grabbing nonintegrin expressed on cells (human) (Q9NNX6 whole entry): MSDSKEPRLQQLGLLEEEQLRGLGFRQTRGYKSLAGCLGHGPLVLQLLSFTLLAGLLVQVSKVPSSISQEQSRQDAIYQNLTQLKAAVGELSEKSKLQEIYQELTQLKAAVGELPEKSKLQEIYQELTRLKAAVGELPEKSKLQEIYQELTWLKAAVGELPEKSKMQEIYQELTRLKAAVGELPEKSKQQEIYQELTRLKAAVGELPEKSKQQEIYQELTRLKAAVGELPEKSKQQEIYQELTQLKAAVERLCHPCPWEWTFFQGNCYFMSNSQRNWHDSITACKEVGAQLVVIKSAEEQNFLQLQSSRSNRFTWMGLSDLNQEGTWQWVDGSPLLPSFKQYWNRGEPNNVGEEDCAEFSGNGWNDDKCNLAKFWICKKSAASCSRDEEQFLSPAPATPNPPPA

[7] = target: Liver and lymph node sinusoidal endothelial cell C-type lectin expressed on cells (human) (UniProt Q6UXB4)
Sequence of Liver and lymph node sinusoidal endothelial cell C-type lectin expressed on cells (human) (Q6UXB4 whole entry): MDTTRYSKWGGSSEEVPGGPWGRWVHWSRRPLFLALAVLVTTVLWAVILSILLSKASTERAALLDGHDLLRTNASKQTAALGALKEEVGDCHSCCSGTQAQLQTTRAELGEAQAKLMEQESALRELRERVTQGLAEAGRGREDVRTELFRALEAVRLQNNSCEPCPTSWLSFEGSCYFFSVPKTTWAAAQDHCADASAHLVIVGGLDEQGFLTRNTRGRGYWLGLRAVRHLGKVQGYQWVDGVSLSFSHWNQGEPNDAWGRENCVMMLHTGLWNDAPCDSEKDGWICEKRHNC

Sequence of C-type lectin domain family 10 member A expressed on cells (human) (Q8IUN9 whole entry, the tested form may be a part): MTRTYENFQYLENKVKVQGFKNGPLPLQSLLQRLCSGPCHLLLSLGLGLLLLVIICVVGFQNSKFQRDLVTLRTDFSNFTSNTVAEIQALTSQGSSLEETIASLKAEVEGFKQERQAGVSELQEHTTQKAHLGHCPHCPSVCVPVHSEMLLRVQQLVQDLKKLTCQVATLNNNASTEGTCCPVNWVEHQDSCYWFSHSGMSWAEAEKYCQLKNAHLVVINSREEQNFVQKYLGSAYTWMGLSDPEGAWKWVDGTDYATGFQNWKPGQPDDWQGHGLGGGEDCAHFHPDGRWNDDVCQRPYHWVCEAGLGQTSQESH
Sequence of Asialoglycoprotein Receptor 1 expressed on cells (human) (P07306 whole entry): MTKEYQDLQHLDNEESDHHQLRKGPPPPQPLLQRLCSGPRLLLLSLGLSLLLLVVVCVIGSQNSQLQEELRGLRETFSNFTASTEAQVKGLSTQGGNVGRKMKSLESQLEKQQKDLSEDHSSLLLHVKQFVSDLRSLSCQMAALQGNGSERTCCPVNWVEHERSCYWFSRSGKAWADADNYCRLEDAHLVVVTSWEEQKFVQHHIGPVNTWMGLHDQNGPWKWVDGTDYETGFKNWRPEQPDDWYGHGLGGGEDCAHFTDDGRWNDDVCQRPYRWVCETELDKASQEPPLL
Sequence of Tweety Family Member 2 expressed on cells (human) (Q9BSA4 whole entry): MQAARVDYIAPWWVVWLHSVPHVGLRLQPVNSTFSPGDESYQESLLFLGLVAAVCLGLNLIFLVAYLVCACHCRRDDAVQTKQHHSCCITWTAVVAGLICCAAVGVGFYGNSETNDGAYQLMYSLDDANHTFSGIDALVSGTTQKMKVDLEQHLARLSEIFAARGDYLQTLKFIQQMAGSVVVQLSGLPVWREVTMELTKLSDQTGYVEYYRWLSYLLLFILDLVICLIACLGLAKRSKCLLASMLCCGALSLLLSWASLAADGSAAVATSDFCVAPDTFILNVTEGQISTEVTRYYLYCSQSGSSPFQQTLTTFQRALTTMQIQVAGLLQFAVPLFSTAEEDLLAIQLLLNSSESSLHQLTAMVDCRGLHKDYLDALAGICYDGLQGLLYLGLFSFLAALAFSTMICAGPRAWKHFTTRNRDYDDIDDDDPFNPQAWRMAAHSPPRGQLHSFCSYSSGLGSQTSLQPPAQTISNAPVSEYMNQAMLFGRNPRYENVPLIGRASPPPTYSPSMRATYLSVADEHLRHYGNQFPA

ACE2-Fc + L-SIGN-Fc + ASGR1-Fc
blocking of S protein binding (heat-map cell) [1]: 33.7%

Fc Control
blocking of S protein binding (heat-map cell) [1]: 0%

SARS-CoV-2 S protein displayed on lentiviral (HIV-GFP) pseudovirus (from UniProt P0DTC2 14-1273)
cells in the Anti-SARS-CoV-2 S protein (APC) gate [2]: 3.2%
cells in the Anti-SARS-CoV-2 S protein (APC) gate [3]: 47.6%
cells in the Anti-SARS-CoV-2 S protein (APC) gate [4]: 1.61%

SARS-CoV-2 S protein displayed on lentiviral (HIV-GFP) pseudovirus (from UniProt P0DTC2 14-1273) (other; other documents disagree on this pair)
cells in the Anti-SARS-CoV-2 S protein (APC) gate [5]: 31.7%
cells in the Anti-SARS-CoV-2 S protein (APC) gate [6]: 20.8%
cells in the Anti-SARS-CoV-2 S protein (APC) gate [7]: 1.7%
